From article PMC12153317 (2025)
Numbering of substitutions follows the chain as printed. “And” between values parts separate entries of the source, which are not always exact repeats. Identical values can stand only once.

B1: S1V2-65 recombinant human IgG1 (antibody, V domains shown)
VH: EVQLVQSGAEVKKPGETLKISCKGSGYSFTNYWIGWVRQMPGKGLECMGIIDPSDSETRYSPSFQGQVTISADKSTNTAFLQWSTVKASDTAIYYCARLGYGDSPPFDFWGQGAGVTVS
VL: MTQSPLSLPVTPGESASISCRSSQSLLYSNGYNHLDWYVQKPGQPPQLLIFLGSTRASGVSDRVSGSGSGTDFTLQISRVEAEDVGVYYCMQALETPYTFGQGTKLEVK
B2: S1V2-60 recombinant human IgG1 (antibody, V domains shown)
VH: EVQLVQSGAEVSEPGKSLKISCKGSAYSFINYWIGWVRQMPGKGLECMGIIDPSDSETRYNPSFEGHVLISADTSINTAYLQWSSLRASDTAMYYCVRLGYGDSPPFDSWGQGTLVTVS
VL: B1 VL with L6F, S15P, V39Q, T55R, S61P, V64F, Q76K, E95Q, T96D, V108I
B3: S8V1-157 recombinant human IgG1 (antibody, V domains shown)
VH: EVQLVQSGAEVKKPGASVKVSCKVSGYRLTALSMHWVRQAPGKGLEWMGGFDPEEDETIYAQNFQGRVTLTEDTSTDTVYMELSSLRSEDTGVYYCATLMGANPFDYWGQGTLIIVSG
VL: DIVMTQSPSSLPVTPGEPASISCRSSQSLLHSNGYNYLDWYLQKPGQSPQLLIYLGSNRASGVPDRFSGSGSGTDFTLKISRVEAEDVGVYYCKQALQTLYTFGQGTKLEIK
B4: S1V2-17 recombinant human IgG1 (antibody, V domains shown)
VH: QVKLVQSGAEVKKPGASVKVSCKVSGYTLSELSIHWVRQVPGKGLESMGGFDPEDDGAIYAESFQGRVTMTEDTSTDTSFMELHSLRSEDTAVYYCVTWLVGTTVAAYWGQGTLVTVS
VL: MTQTPFSLPVTPGEPASISCRSSQSLLYSNGYNHLDWYLQKPGQSPQLLIYLGSYRASGVPDRFSGSGSGTDFTLKISRVEADDVGVYYCMQALQAPRTFGQGTKVEIK
B5: FI6v3 recombinant human IgG (antibody, V domains shown)
VH: QVQLVESGGGVVQPGRSLRLSCAASGFTFSTYAMHWVRQAPGKGLEWVAVISYDANYKYYADSVKGRFTISRDNSKNTLYLQMNSLRAEDTAVYYCAKDSQLRSLLYFEWLSQGYFDYWGQGTLVTVSS
VL: not shown

The binders below were run against specific HAs not engaged in ELISA (soluble HA ectodomains) (influenza virus) (assay: ELISA).

Binder	Kd
B1	> 100 nM
B2	> 100 nM
B3	> 100 nM
B4	> 100 nM

These binders were tested against pandemic H2 HA (soluble HA ectodomain, ELISA) (influenza A virus) (assay: ELISA).

Binder	Kd
B1	10 nM
B2	8.8 nM
B3	2.5 nM
B5	0.36 nM
B4	6.5 nM

These binders were tested against pre-pandemic H5 HAs (soluble HA ectodomains, ELISA) (influenza A virus) (assay: ELISA).

Binder	Kd
B1	0.1 nM
B2	0.1 nM
B3	< 0.1 nM
B5	0.44 nM
B4	0.14 nM

These binders were tested against all seasonal H3s (1968–2020) assayed (soluble HA ectodomains, ELISA) (influenza A virus) (assay: ELISA).

Binder	Kd
B1	0.16 nM and 0.21 nM and 0.25 nM
